First the molecules themselves.
B1: 3D6 human IgG1 mAb (antibody, V domains shown)
VH: QVQLVESGGGLVQPGGSLRLSCAASGFTFSSYYMTWVRQAPGKGLEWVSSIYSDGSNTYYADSVKGRFTISRDNAKNTLHLQMNSLKSEDTAVYYCAKDLKARYSGSYHDEGYDYWGQGTQVTVSS
VL: QSALTQPSALSVTLGQTAKITCQGGSLGSSYAHWYQQKPGQAPVLVIYDDDSRPSGIPERFSGSSSGGRATLTISGAQAEDEGDYYCQSADSSGNPVFGGGTKLTVL
notes: human IgG1 and human light chain constant domains; also called clone 3D6
B2: 16E4 human IgG1 mAb (antibody, V domains shown)
VH: B1 VH with Q1E, T35S, N57Y, T58A, H80Y, S107T
VL: B1 VL with Q1S, T17S, S29A, S30T, H33Y, D91Y, S93N, P96A, K103H
notes: also called clone 16E4
B3: 3A1 human IgG1 mAb (antibody, V domains shown)
VH: EVQVQESGGGLVQPGGSLRLSCAASGFTFDNYAMSWVRQAPGKGLEWVSAISWNGGSTYYAESMKGRFTISRDNAKNMLYLQMNSLKSEDTAVYYCAKDLLVAARGGMDYWGKGTLVTVSS
VL: SSALTQPSAVSVSLEQTARITCQGGTLGSYGAHWYQQKPGQAPVLLIYGDNSRPSGIPERFSGTRSGGTATLTISGAQAEDEADYYCQSFDYSGNAVFGGGTHLTVL
notes: human IgG1 and human light chain constant domains; also called clone 3A1
B4: OmaVH15G55H - VL3D28HS31H (antibody, V domains shown)
VH: EVQLVESGGGLVQPGGSLRLSCAVSGYSITSGHRWEWIRQAPGKGLEWVASIHYDHSTNYNPSVKGRITISRDDSKNTFYLQMNSLRAEDTAVYYCARATHYFGHWHFAVWGQGTLVTVSS
VL: DIQLTQSPSSLSASVGDRVTITCRASQSVDYHGDHYMNWYQQKPGKAPKLLIEWGSYLRSGVPSRFSGSGSGTDFTLTISSLQPEDFATYYCQQNAEDPYTFGQGTKVEIK
B5: Oma VH15W100b - VL3 (antibody, V domains shown)
VH: B4 VH with H56G, W106H
VL: B4 VL with H32D, H35S
B6: OmaVH15G55HW100b - VL3 (antibody, V domains shown)
VH: B4 VH with W106H
VL: B4 VL with H32D, H35S
B7: OmaVH15G55HW100b - VL3D28H (antibody, V domains shown)
VH: B4 VH with W106H
VL: B4 VL with H35S
notes: also called OmaVH15G55HW100b VL3D25H
B8: 18E2 human IgG1 mAb (antibody, V domains shown)
VH: QLQLVESGGGLVQPGGSLRLSCAASGFTFSSYVMSWVRQAPGKGLEWVSSIYHDGSHTYYADFVKGRFTISRDNAKNTLYLQMNSLKSEDTAVYYCASGTSYSGSYYYTDPFFGSWGQGTQVTVSS
VL: NFMLTQPSALSVTLGQTARITCQGDRLGSRYIYWYQQKPPQAPVLVIHDDDRRPSGIPERFSGSSSGGTATLTISGAQAEDDGDYYCQSADSSGNPVFGGGTHLTVL
notes: also called clone 18E2
B9: 18B9_VH_S35H_VL_Y49H (antibody, V domains shown)
VH: QVQLVESGGGLVQPGGSLRLSCAASGFTFSSYVMHWVRQAPGKGLEWVSSIYSDGSHTYYADSVKGRFTISRDNAKNTLYLQMNSLKSEDTAVYYCAKNLEHYSGSYYYTDPRYDYWGQGTQVTVSS
VL: B1 VL with Q1S, A32V, Y48H, D50G, R69T, G83D, P96A, K103H
B10: VH18B9_S35H (antibody, V domains shown)
VH: B9 VH
VL: B1 VL with Q1S, A32V, D50G, R69T, G83D, P96A, K103H
B11: VH3D1_S35H (antibody, V domains shown)
VH: QLQVVESGGGLVQPGGSLRLSCAASGFTFSSYYMHWVRQAPGKGLEWVSSIYSDGRGSKTFYADSVKGRFTISRDNAKNTLYLQMNSLKSEDTAVYFCAKDLLVAARGSMDYWGQGTQVTVSS
VL: B3 VL with S1N, S2F, A3M
B12: VL3D1_Y49H VL3D1_Q89H (antibody, V domains shown)
VH: B11 VH with H35S
VL: B3 VL with S1N, S2F, A3M, Y48H, Q88H
B13: VH18E2_S35H (antibody, V domains shown)
VH: B8 VH with S35H
VL: B8 VL
B14: VL18E2_Y34H (antibody, V domains shown)
VH: B8 VH
VL: B8 VL with Y33H

Positions count from the first letter of the chain named.

Experimental findings from patent US20220177604A1 (ARGENX, published 2022) are described below.

As usually defined, the Kd is the equilibrium constant for the complex coming apart. The low end stands for higher affinity, the high end for lower affinity. Broadly, the koff is the first-order rate constant of dissociation. By kon is commonly meant the second-order rate constant of association. A high value points to faster complex formation. What is called IC50 is the point on the concentration scale where inhibition reaches its midpoint. By EC50 is commonly meant the concentration at which the effect is half-maximal.

T1 sequence (P01854 whole entry): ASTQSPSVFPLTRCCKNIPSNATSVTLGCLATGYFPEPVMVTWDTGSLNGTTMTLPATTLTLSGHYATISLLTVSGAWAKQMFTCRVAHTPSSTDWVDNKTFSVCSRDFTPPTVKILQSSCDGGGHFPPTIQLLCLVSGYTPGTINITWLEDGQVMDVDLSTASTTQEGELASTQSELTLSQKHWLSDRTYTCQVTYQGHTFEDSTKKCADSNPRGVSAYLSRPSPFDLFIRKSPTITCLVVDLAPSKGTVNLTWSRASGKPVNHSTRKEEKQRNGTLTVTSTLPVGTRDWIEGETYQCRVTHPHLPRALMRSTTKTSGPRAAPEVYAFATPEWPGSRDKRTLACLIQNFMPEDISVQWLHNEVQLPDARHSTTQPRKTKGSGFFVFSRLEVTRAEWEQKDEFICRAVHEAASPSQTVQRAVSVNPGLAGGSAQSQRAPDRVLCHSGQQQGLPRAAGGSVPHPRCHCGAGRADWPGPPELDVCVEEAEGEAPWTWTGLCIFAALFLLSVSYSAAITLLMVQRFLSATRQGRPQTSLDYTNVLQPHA

The first assay has as its target T1, human immunoglobulin E (hIgE) (human, UniProt P01854-1 1-428).
T1 construct: also called human IgE; Native IgE (Abcam)
Nature of the assay: SPR competition.
Protocol: (§1) For this purpose, a competition approach was set-up. […] The assay was performed in HBS-EP pH7.4 or HBS-EP pH 5.5. Raw data were analyzed via BIA evaluation software with a blank subtraction (2-1). […] The IC50 values of each compound were calculated with a non-linear regression (log(agonist) vs. response Variable slope (four parameters)).
Consider B1, for which the “Ratio pH 6/7.4 (IC50)” value is 1.8.
With B2, the “Ratio pH 6/7.4 (IC50)” value stood at 1.2.
On the same count and under the same terms, the figure for B3 is 1.5.

The target of the next assay is T1, human immunoglobulin E (hIgE). Nature of the assay: SPR (Biacore), pH 7.4.
B4: the Kd stood at 2.52 nM, the koff was 0.000722 s⁻¹ and the kon worked out at 286000 M⁻¹ s⁻¹.
The corresponding values for B5 are 2.93 nM, 0.00103 s⁻¹ and 351000 M⁻¹ s⁻¹.
In the same order, the values of B6 are 8.69 nM, 0.00226 s⁻¹ and 261000 M⁻¹ s⁻¹.
In the same order, the values of B7 are 15.2 nM, 0.00303 s⁻¹ and 200000 M⁻¹ s⁻¹.

Another assay shares this target. Nature of the assay: competition ELISA. For orientation: ELISA stands for enzyme-linked immunosorbent assay.
Protocol: (§2) The IC50 values of each compound were calculated with a non-linear regression (log(agonist) vs. response Variable slope (four parameters)).
Consider B1, for which the “Ratio pH 6/7.4 (IC50)” value is 2.8.
Regarding B2, the “Ratio pH 6/7.4 (IC50)” value is 2.7.
Consider B3, for which the “Ratio pH 6/7.4 (IC50)” value was 1.
Turning to B8, the “Ratio pH 6/7.4 (IC50)” value amounted to 2.4.

The target is the same in a further assay. Nature of the assay: SPR (Biacore). For orientation: In SPR one partner is held on a chip, and binding of the other changes the refractive index at the surface.
In the case of B4, the “Ratio pH 7.4/pH6.0 (of KD)” value came to 6.4.
Regarding B5, the “Ratio pH 7.4/pH6.0 (of KD)” value is 10.2.
On the same count and under the same terms, the figure for B6 is 17.2; for B7 it is 9.

For the next assay the target is unchanged. Nature of the assay: SPR competition, hIgE over hFcεRIα chip, pH 5.5.
Protocol: (§3) The assay was performed in HBS-EP pH7.4 or HBS-EP pH 5.5. Raw data were analyzed via BIA evaluation software with a blank subtraction (2-1). […] The IC50 values of each compound were calculated with a non-linear regression (log(agonist) vs. response Variable slope (four parameters)).
(§4) Raw data were analyzed via BIA evaluation software with a blank subtraction (2-1). […] The IC50 values of each compound, calculated with a non-linear regression (log(agonist) vs. response Variable slope (four parameters)).
Turning to B9, the half-inhibitory concentration (IC50) amounted to 24.6 µg/mL.
On the same count and under the same terms, the figure for B10 is 22.3 µg/mL; for B11 it is 23 µg/mL; for B12 it is 15.2 µg/mL.
The same measure, in the same setting: the figure for B8 is 0.484 µg/mL; for B13 it is 3.73 µg/mL; for B14 it is 5.18 µg/mL.

Another assay deals with T2, recombinant Motavizumab human IgE (rMota-hIgE) (human, UniProt P01854 1-428).
T2 construct: also called Recombinant IgE (argenx)
T2 sequence (P01854 other isoform, or with tags, fused parts or gaps limits assumed, form in doubt): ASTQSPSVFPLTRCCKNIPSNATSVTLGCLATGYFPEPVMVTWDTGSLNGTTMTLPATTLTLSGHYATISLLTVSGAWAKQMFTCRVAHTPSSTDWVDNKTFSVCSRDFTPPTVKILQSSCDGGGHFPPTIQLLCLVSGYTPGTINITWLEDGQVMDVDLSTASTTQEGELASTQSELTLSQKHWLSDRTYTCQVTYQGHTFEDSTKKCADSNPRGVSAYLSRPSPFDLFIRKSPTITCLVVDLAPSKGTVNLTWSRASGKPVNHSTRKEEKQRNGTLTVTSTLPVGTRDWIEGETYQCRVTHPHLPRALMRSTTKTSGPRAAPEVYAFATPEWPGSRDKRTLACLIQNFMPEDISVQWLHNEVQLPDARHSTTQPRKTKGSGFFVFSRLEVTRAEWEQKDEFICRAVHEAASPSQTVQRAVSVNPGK
Nature of the assay: hIgE binding ELISA.
Protocol: (§5) Briefly a Maxisorp plate was coated with recombinant human respiratory syncytial virus protein F (RSV-F) (0.5 μg/mL), then blocked with PBS with 3% BSA and 0.05% Tween. […] After several washing steps at pH 7.4 or pH 5.5, detection of the bound mAbs was carried out with an anti-human Fc-HRP antibody.
On to B4, for which the “Ratio EC50 pH 5.5/7.4” value worked out at 1.5 and the “Ratio EC50 pH 7.4/5.5” value came out at 0.67.
The corresponding values for B5 are 1.9 and 0.53.
Turning to B6, the “Ratio EC50 pH 5.5/7.4” value was determined as 13.5 and the “Ratio EC50 pH 7.4/5.5” value amounted to 0.07.
The corresponding values for B7 are 9.6 and 0.1.

Another assay deals with T1, human immunoglobulin E (hIgE). Nature of the assay: competition ELISA, biotin-hIgE to coated hFcεRIα, pH 7.4.
Protocol: as §2
In turn, B1 yielded an IC50 of 75.4 nM.
Still for that read-out and setting: the figure for B2 is 58 nM; for B3 it is 152 nM.
Regarding B8, the IC50 came out at 36.9 nM.

Another assay has the same target. Kind of assay: SPR competition, hIgE + mAb over hFcεRIα chip, pH 7.4.
Protocol: as §1
Take B1: the IC50 was 4.37 nM.
Turning to B2, the IC50 stood at 4.25 nM.
The same measure, in the same setting: the figure for B3 is 4.76 nM.

The next assay shares this target. Kind of assay: SPR competition, hIgE + mAb over hFcεRIα chip, pH 6 (text: pH 5.5).
Protocol: as §1
With B1, the IC50 is 8.04 nM.
Still for that read-out and setting: the value for B2 was 5.17 nM; that for B3 was 6.91 nM.

The target is the same in a further assay. Nature of the assay: SPR (Biacore), pH 6.0.
In turn, B4 showed a Kd of 16.1 nM, a koff of 0.00527 s⁻¹ and a kon of 326000 M⁻¹ s⁻¹.
In the same order, the values of B5 are 29.8 nM, 0.00875 s⁻¹ and 294000 M⁻¹ s⁻¹.
In the same order, the values of B6 are 150 nM, 0.0254 s⁻¹ and 170000 M⁻¹ s⁻¹.
B7 returned a dissociation constant Kd of 136 nM, a koff of 0.0648 s⁻¹ and a kon of 123000 M⁻¹ s⁻¹.

For the next assay the target is unchanged. Kind of assay: SPR competition, hIgE over hFcεRIα chip, pH 7.4.
Protocol: as §3, §4
Regarding B9, the IC50 amounted to 26.3 µg/mL.
B10: the IC50 amounted to 21.7 µg/mL.
For the molecule B11, the IC50 is 15.5 µg/mL.
The same measure, in the same setting: the value for B12 was 4.41 µg/mL; that for B8 was 0.628 µg/mL.
The same measure, in the same setting: the figure for B13 is 0.811 µg/mL; for B14 it is 1.1 µg/mL.

For another assay the target is unchanged. Nature of the assay: competition ELISA, biotin-hIgE to coated hFcεRIα, pH 6.
Protocol: as §2
On to B1, for which the IC50 turned out to be 214 nM.
Still for that read-out and setting: the value for B2 was 156 nM.
Take B3: the IC50 was found to be 148 nM.
With B8, the IC50 was 87.8 nM.

The next assay has as its target T2, recombinant Motavizumab human IgE …. Kind of assay: hIgE binding ELISA, pH 5.5.
Protocol: as §5
Consider B4, for which the EC50 came to 0.023 µg/mL.
As to B5, the EC50 was found to be 0.0326 µg/mL.
Regarding B6, the EC50 amounted to 0.221 µg/mL.
As for B7, the EC50 was 0.13 µg/mL.

For a further assay the target is unchanged. Kind of assay: hIgE binding ELISA, pH 7.4.
Protocol: as §5
B4: the EC50 is 0.0154 µg/mL.
B5: the EC50 was 0.0174 µg/mL.
In the case of B6, the EC50 amounted to 0.0164 µg/mL.
The same measure, in the same setting: the figure for B7 is 0.0135 µg/mL.

The next assay addresses T1, human immunoglobulin E (hIgE). Nature of the assay: competition ELISA, hIgE to hFcεRIα.
B4 gave an IC50 of 2.63 nM.
The same measure, in the same setting: the figure for B5 is 1.4 nM; for B6 it is 23.2 nM.
The molecule B7 registered an IC50 of 172 nM.
